The values below come from paper PMC7084321, “Structural and Functional Characterization of New SsoPox Variant Points to the Dimer Interface as a Driver for the Increase in Promiscuous Paraoxonase Activity” (International Journal of Molecular Sciences, 2020).

This data set deals with the molecule itself. As to the kind of experiment: crystal structure; sitting drop vapor diffusion at 19 °C; space group P212121, two dimers per asymmetric unit; 4Mut at 6.0 mg/mL in 20 mM HEPES-NaOH pH 8.5, 0.5 mM CoCl2, 200 mM NaCl.

B1: SsoPox V82L/C258L/I261F/W263A (4Mut) (enzyme, Saccharolobus solfataricus, UniProt Q97VT7 1-314, looked up)
chain: MRIPLVGKDSIESKDIGFTLIHEHLRVFSEAVRQQWPHLYNEDEEFRNAVNEVKRAMQFGVKTIVDPTVMGLGRDIRFMEKLVKATGINLVAGTGIYIYIDLPFYFLNRSIDEIADLFIHDIKEGIQGTLNKAGFVKIAADEPGITKDVEKVIRAAAIANKETKVPIITHSNAHNNTGLEQQRILTEEGVDPGKILIGHLGDTDNIDYIKKIADKGSFIGLDRYGLDLFLPVDKRNETTLRLIKDGYSDKIMISHDYLCTFDAGTAKPEYKPKLAPRWSITLIFEDTIPFLKRNGVNEEVIATIFKENPKKFFS
notes: SsoPox, phosphotriesterase-like lactonase from Saccharolobus solfataricus, with four substitutions; primers run from the start codon (NdeI site) to behind the stop codon (HindIII site); Two cobalt atoms per protein by ICP-MS; also called SsoPox 4Mut; SsoPox-4Mut; source: E. coli BL21(DE3), pT7-7-4Mut, purified (thermoprecipitation, Q-Sepharose, Superdex 75, MonoQ)
Consider B1, for which the binding result is “binds”.
